Reference: PMC9059161

Target: RHAU–casp9

time to cleave half of casp3 (12 μM) by RHAU–casp9 (150 nM) without TERRA: 120 min
Substance: RHAU–casp9 (enzyme)
